Experimental data: patent US20200317768A1 (published 2020)
Numbering of substitutions follows the chain as printed. Names may count otherwise.

T1: human FcγRIIaH extracellular domain, C-terminal His-tag (human, UniProt P12318 34-217)
T1 construct: also called human FcγRIIa (type H); FcgRIIaH; not shown: His-tag added to the C-terminus
T1 sequence: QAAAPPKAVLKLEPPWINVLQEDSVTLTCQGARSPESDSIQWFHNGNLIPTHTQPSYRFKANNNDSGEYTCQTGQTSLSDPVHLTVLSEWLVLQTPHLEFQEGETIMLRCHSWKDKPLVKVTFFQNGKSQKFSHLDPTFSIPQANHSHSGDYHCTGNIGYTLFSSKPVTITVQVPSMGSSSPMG

T2: human FcγRIIb extracellular domain, C-terminal His-tag (human, UniProt P31994 43-217)
T2 construct: also called FcgRIIb; not shown: His-tag added to the C-terminus
T2 sequence: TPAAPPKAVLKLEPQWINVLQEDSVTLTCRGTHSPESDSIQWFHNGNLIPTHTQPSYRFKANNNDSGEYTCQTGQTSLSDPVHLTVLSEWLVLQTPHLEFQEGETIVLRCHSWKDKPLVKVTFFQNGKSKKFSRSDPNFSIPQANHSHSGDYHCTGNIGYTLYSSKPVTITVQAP

T3: human FcγRIIaR extracellular domain, C-terminal His-tag (human, UniProt P12318 34-217)
T3 construct: also called human FcγRIIa (type R); FcgRIIaR; not shown: His-tag added to the C-terminus
T3 chain: T1 sequence with H134R

B1: MS103240H795-TT11/M103202L1045-SK1 (antibody, human IgG1, kappa)
heavy: QVQLVESGGGLVQPGGSLRLSCAVSGIDLSHDDISWVRQAPGKGLEWVSIISYAGSTYYASWAKGRLTISKDTSKNQVVLTMTNMDPVDTATYYCARGVPAYSHGGDLWGQGTLVTVSSASTKGPSVFPLAPSSKSTSGGTAALGCLVKDYFPEPVTVSWNSGALTSGVHTFPAVLQSSGLYSLSSVVTVPSSSLGTQTYICNVNHKPSNTKVDKKVEPKSCDKTHTCPPCPAPEYLGGDSVFLFPPKPKDVLMISRTPEVTCVVVDVSHEDPEVKFNWYVDGVEVHNAKTKPREEQYNSTYRVVSVLPVLHQDWLNGKEYKCKVSNKALPKPIEKTISKAKGQPREPQVYTLPPSREEMTKNQVSLTCLVKGFYPSDIAVEWESNGQPENNYKTTPPVLDSDGSFFLYSKLTVDKSRWQQGNVFSCSVMHEALHNHYTQKSLSLSP
light: DIVMTQSPATLSLSPGERATLSCTTSQSVYHENWLSWFQQKPGQPPKLLIYWASTLAYGVPSRFSGSGSGTDFTLTISSLQPEDAATYYCAGGYGGGRYAFGQGTKVEIKRTVAAPSVFIFPPSDEQLKSGTASVVCLLNNFYPREAKVQWKVDNALQSGNSQESVTEQDSKDSTYSLSSTLTLSKADYEKHKVYACEVTHQGLSSPVTKSFNRGEC
notes: CH = SG1 with L234Y/P238D/T250V/T307P/A330K (EU numbering)
B2: MS103240H795-TT21/M103202L1045-SK1 (antibody, human IgG1, kappa)
heavy: B1 heavy with Y236L, Q313R, D415K
light: B1 light
notes: CH = SG1 with P238D/T250V/T307P/Q311R/A330K/D413K (EU numbering)
B3: MS103240H795-TT14/M103202L1045-SK1 (antibody, human IgG1, kappa)
heavy: B1 heavy with V266I
light: B1 light
notes: CH = SG1 with L234Y/P238D/T250V/V264I/T307P/A330K (EU numbering)
B4: MS103240H795-TT24/M103202L1045-SK1 (antibody, human IgG1, kappa)
heavy: B1 heavy with Y236L, S269A, Q313R, P345R
light: B1 light
notes: CH = SG1 with P238D/T250V/S267A/T307P/Q311R/A330K/P343R (EU numbering)
B5: MS103240H795-TT15/M103202L1045-SK1 (antibody, human IgG1, kappa)
heavy: B1 heavy with V266I, S269A
light: B1 light
notes: CH = SG1 with L234Y/P238D/T250V/V264I/S267A/T307P/A330K (EU numbering)
B6: MS103240H795-TT28/M103202L1045-SK1 (antibody, human IgG1, kappa)
heavy: B1 heavy with S269A, Q313R, P345R
light: B1 light
notes: CH = SG1 with L234Y/P238D/T250V/S267A/T307P/Q311R/A330K/P343R (EU numbering)
B7: MS103240H795-TT29/M103202L1045-SK1 (antibody, human IgG1, kappa)
heavy: B1 heavy with S269A, Q313R, D415K
light: B1 light
notes: CH = SG1 with L234Y/P238D/T250V/S267A/T307P/Q311R/A330K/D413K (EU numbering)
B8: MS103240H795-TT26/M103202L1045-SK1 (antibody, human IgG1, kappa)
heavy: B1 heavy with Q313R, P345R
light: B1 light
notes: CH = SG1 with L234Y/P238D/T250V/T307P/Q311R/A330K/P343R (EU numbering)
B9: MS103240H795-TT12/M103202L1045-SK1 (antibody, human IgG1, kappa)
heavy: B1 heavy with S269A
light: B1 light
notes: CH = SG1 with L234Y/P238D/T250V/S267A/T307P/A330K (EU numbering)
B10: MS103240H795-TT20/M103202L1045-SK1 (antibody, human IgG1, kappa)
heavy: B1 heavy with Y236L, Q313R, P345R
light: B1 light
notes: CH = SG1 with P238D/T250V/T307P/Q311R/A330K/P343R (EU numbering)
B11: MS103240H795-TT13/M103202L1045-SK1 (antibody, human IgG1, kappa)
heavy: B1 heavy with Y236L, V266I, S269A
light: B1 light
notes: CH = SG1 with P238D/T250V/V264I/S267A/T307P/A330K (EU numbering)
B12: MS103240H795-TT22/M103202L1045-SK1 (antibody, human IgG1, kappa)
heavy: B1 heavy with Y236L, V266I, Q313R, P345R
light: B1 light
notes: CH = SG1 with P238D/T250V/V264I/T307P/Q311R/A330K/P343R (EU numbering)
B13: MS103240H795-TT27/M103202L1045-SK1 (antibody, human IgG1, kappa)
heavy: B1 heavy with Q313R, D415K
light: B1 light
notes: CH = SG1 with L234Y/P238D/T250V/T307P/Q311R/A330K/D413K (EU numbering)
B14: MS103240H795-TT23/M103202L1045-SK1 (antibody, human IgG1, kappa)
heavy: B1 heavy with Y236L, V266I, Q313R, D415K
light: B1 light
notes: CH = SG1 with P238D/T250V/V264I/T307P/Q311R/A330K/D413K (EU numbering)
B15: MS103240H795-TT25/M103202L1045-SK1 (antibody, human IgG1, kappa)
heavy: B1 heavy with Y236L, S269A, Q313R, D415K
light: B1 light
notes: CH = SG1 with P238D/T250V/S267A/T307P/Q311R/A330K/D413K (EU numbering)

Each binder was assayed against T1, human FcγRIIaH extracellular domain, … (assay: SPR (BIACORE), antibody captured, soluble FcgR as analyte, 25C).
Protocol: (§1) The kinetic analysis of interactions between these antibodies and FcγR was carried out using BIACORE® T200 or BIACORE® 4000 (GE Healthcare). HBS-EP+ (GE Healthcare) was used as the running buffer, and the measurement temperature was set to 25° C. A chip produced by immobilizing Protein A. Protein A/G or mouse anti-human IgG kappa light chain (BD Biosciences) onto a Series S Sensor Chip CM4 or CM5 (GE Healthcare) by the amine-coupling method was used. […] After the measurement, the antibody captured on the chip was washed off by allowing reaction with 10 mM glycine-HCl, pH1.5 and 25 mM NaOH so that the chip was regenerated and used repeatedly. The sensorgrams obtained as measurement results were analyzed by the 1:1 Langmuir binding model using the BIACORE® Evaluation Software to calculate the binding rate constant ka (L/mol/s) and dissociation rate constant kd (l/s), and the dissociation constant KD (mol/L) was calculated from these values. […] Regarding such interactions, KD values were calculated using the following 1:1 binding model described in BIACORE® T100 Software Handbook BR1006-48 Edition AE.
(§2) Human FcγRIIb-enhanced Fc variants with anti-myostatin variable region were constructed and their affinity for human FcγRs was evaluated. […] In addition, substitutions (Q311R/D413K or […]) were also introduced. The variants were expressed using M103202L1045-SK1 as light chain and their affinity to human FcγRs was analyzed according to the method shown in Example 34.

Row | Kd | Binder
1 | 24 µM | B1
2 | 56 µM | B2
3 | 18 µM | B3
4 | 49 µM | B4
5 | 29 µM | B5
6 | 48 µM | B6
7 | 37 µM | B7
8 | 69 µM | B8
9 | 20 µM | B9
10 | 91 µM | B10
11 | 45 µM | B11
12 | 60 µM | B12
13 | 52 µM | B13
14 | 100 µM | B14
15 | 22 µM | B15

What follows are binders tested against T4, human FcγRIIIaV extracellular domain, C-terminal His-tag (human, UniProt P08637 17-208) in the same assay as above.
T4 construct: also called FcgRIIIaV; not shown: His-tag added to the C-terminus
Protocol: as §1, §2

T4 sequence (P08637 17-208 F176V): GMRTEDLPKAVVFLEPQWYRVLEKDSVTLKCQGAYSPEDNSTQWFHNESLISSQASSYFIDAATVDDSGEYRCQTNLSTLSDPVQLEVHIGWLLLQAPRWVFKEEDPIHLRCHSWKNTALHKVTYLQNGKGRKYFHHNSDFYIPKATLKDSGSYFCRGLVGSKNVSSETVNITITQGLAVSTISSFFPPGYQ

Row | Kd | Binder
16 | 170 µM | B1
17 | 85 µM | B2
18 | 150 µM | B3
19 | 260 µM | B4
20 | 130 µM | B5
21 | 82 µM | B6
22 | 89 µM | B7
23 | 200 µM | B8
24 | 130 µM | B9
25 | 84 µM | B10
26 | 140 µM | B11
27 | 72 µM | B12
28 | 130 µM | B13
29 | 450 µM | B14
30 | 140 µM | B15

These binders were tested against T2, human FcγRIIb extracellular domain, … in the same assay as above.
Protocol: as §1, §2

Row | Kd | Binder
31 | 0.52 µM | B1
32 | 1.3 µM | B2
33 | 0.19 µM | B3
34 | 1.2 µM | B4
35 | 0.25 µM | B5
36 | 0.85 µM | B6
37 | 0.81 µM | B7
38 | 1.1 µM | B8
39 | 0.49 µM | B9
40 | 1.4 µM | B10
41 | 0.32 µM | B11
42 | 0.59 µM | B12
43 | 0.82 µM | B13
44 | 0.55 µM | B14
45 | 1 µM | B15

Target: T3, human FcγRIIaR extracellular domain, …
Assay: as above
Protocol: as §1, §2

Row | Kd | Binder
46 | 10 µM | B1
47 | 20 µM | B2
48 | 7.6 µM | B3
49 | 13 µM | B4
50 | 6.1 µM | B5
51 | 7.7 µM | B6
52 | 7.5 µM | B7
53 | 21 µM | B8
54 | 5 µM | B9
55 | 28 µM | B10
56 | 9.8 µM | B11
57 | 21 µM | B12
58 | 14 µM | B13
59 | 48 µM | B14
60 | 13 µM | B15

The binders below were run against T1, human FcγRIIaH extracellular domain, … (assay: SPR; KD of SG1 divided by KD of variant;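 further: relative to parent M103205H795-SG1 carrying the SG1 human heavy chain constant region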).
Protocol: as §1, §2

Row | KD fold (SG1 = 1) | Binder
61 | 0.031 fold | B1
62 | 0.013 fold | B2
63 | 0.042 fold | B3
64 | 0.015 fold | B4
65 | 0.026 fold | B5
66 | 0.016 fold | B6
67 | 0.02 fold | B7
68 | 0.011 fold | B8
69 | 0.038 fold | B9
70 | 0.008 fold | B10
71 | 0.017 fold | B11
72 | 0.013 fold | B12
73 | 0.014 fold | B13
74 | 0.007 fold | B14
75 | 0.034 fold | B15

What follows are binders tested against T4, human FcγRIIIaV extracellular domain, … (assay: SPR; KD of SG1 divided by KD of variant;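 further: relative to parent M103205H795-SG1 carrying the SG1 human heavy chain constant region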).
Protocol: as §1, §2

Row | KD fold (SG1 = 1) | Binder
76 | 0.005 fold | B1
77 | 0.01 fold | B2
78 | 0.005 fold | B3
79 | 0.003 fold | B4
80 | 0.006 fold | B5
81 | 0.01 fold | B6
82 | 0.009 fold | B7
83 | 0.004 fold | B8
84 | 0.006 fold | B9
85 | 0.01 fold | B10
86 | 0.006 fold | B11
87 | 0.011 fold | B12
88 | 0.006 fold | B13
89 | 0.002 fold | B14
90 | 0.006 fold | B15

The binders below were run against T2, human FcγRIIb extracellular domain, … (assay: SPR; KD of SG1 divided by KD of variant;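 further: relative to parent M103205H795-SG1 carrying the SG1 human heavy chain constant region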).
Protocol: as §1, §2

Row | KD fold (SG1 = 1) | Binder
91 | 11.2 fold | B1
92 | 4.5 fold | B2
93 | 30.5 fold | B3
94 | 4.8 fold | B4
95 | 23.2 fold | B5
96 | 6.8 fold | B6
97 | 7.2 fold | B7
98 | 5.3 fold | B8
99 | 11.8 fold | B9
100 | 4.1 fold | B10
101 | 18.1 fold | B11
102 | 9.8 fold | B12
103 | 7.1 fold | B13
104 | 10.5 fold | B14
105 | 5.8 fold | B15

Target: T3, human FcγRIIaR extracellular domain, …
Assay: SPR; KD of SG1 divided by KD of variant;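 further: relative to parent M103205H795-SG1 carrying the SG1 human heavy chain constant region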
Protocol: as §1, §2

Row | KD fold (SG1 = 1) | Binder
106 | 0.11 fold | B1
107 | 0.06 fold | B2
108 | 0.14 fold | B3
109 | 0.08 fold | B4
110 | 0.18 fold | B5
111 | 0.14 fold | B6
112 | 0.15 fold | B7
113 | 0.05 fold | B8
114 | 0.22 fold | B9
115 | 0.04 fold | B10
116 | 0.11 fold | B11
117 | 0.05 fold | B12
118 | 0.08 fold | B13
119 | 0.02 fold | B14
120 | 0.08 fold | B15
